Measurements as given in article doi:10.1101/2020.01.22.914192, “CryoEM structures of human CMG - ATPγS - DNA and CMG - AND-1 complexes”.

Target: CMG helicase (Cdc45-MCM2-7-GINS) (human, UniProt P49736;P25205;P33991;P33992;Q14566;P33993;O75419;Q14691;Q9Y248;Q9BRX5;Q9BRT9 …)
Assay: cryoEM structure (3.29 A); ATPgS 100 uM; 5 mM Mg acetate; ATPgS/Mg2+ at MCM6, 4, 7; ADP at MCM2, 3; MCM5 site empty; Buffer S: 25 mM Hepes pH 7.5, 50 mM KCl, 5 mM Mg acetate, 2 mM DTT, 100 uM ATPgS; 4 uM fork DNA applied to StrepTrap-bound CMG, eluted with 15 mM desthiobiotin; binding temperature not stated (stored overnight at 4 C)
Conditions: protein: recombinant; tags: MCM4 N-terminal His8-TEV; Psf2 C-terminal TEV-2xStrepII; copies: 1;1;1;1;1;1;1;1;1;1;1; fork: 40 bp duplex, 30 nt 3' poly-dT tail (strand 1) and 30 nt 5' GC-rich tail (strand 2)

B1: fork DNA 70T/70GC (dsDNA)
DNA 1: CGTTTTACAACGTCGTGACTGGGCACTTGATCGGCCAACCTTTTTTTTTTTTTTTTTTTTTTTTTTTTTT
DNA 2: CAGGCAGGCAGGCAGGCAGGCAGGCAGGCAGGTTGGCCGATCAAGTGCCCAGTCACGACGTTGTAAAACG
B1: binds.
